T1: Flag-SkiW274E, full length (UniProt P12755 1-728, W274E)
T1 construct: plasmid pCMV5b-Flag-SkiW274E (from K. Luo); also called SkiW274E FL; SKI274E; source: HEK-293, transfected, in lysate
T1 sequence (looked up): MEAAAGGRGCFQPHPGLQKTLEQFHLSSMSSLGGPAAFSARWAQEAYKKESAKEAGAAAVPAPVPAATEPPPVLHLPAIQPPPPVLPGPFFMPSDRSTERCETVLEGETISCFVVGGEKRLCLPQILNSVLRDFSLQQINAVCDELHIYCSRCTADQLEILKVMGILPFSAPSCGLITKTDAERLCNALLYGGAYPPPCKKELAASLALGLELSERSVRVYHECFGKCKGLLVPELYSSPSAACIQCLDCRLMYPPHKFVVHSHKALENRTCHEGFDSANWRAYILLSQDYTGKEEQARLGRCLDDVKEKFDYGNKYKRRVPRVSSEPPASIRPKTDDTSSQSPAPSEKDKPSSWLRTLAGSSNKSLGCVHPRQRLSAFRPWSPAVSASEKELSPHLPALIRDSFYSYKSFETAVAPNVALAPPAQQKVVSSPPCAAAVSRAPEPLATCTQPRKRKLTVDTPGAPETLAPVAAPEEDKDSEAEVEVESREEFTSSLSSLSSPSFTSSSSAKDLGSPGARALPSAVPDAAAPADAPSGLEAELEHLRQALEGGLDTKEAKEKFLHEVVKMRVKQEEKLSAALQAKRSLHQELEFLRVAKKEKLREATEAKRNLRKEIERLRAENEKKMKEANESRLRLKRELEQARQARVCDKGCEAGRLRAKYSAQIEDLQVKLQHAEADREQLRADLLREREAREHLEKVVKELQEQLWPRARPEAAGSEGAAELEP


Columns and labels:
Assay in all cases: co-IP; LUMIER: Renilla luciferase-Smad3 and Flag-tagged partner co-expressed with constitutively active Alk5 in HEK-293; Flag protein captured from cleared lysate (TNE: 10 mM Tris-HCl pH 7.8, 150 mM NaCl, 1 mM EDTA, 1% Igepal CA-630) on anti-Flag 96-well plates, 2 h at 4 °C; co-precipitated Renilla luciferase activity, TrxGA background subtracted, percent of wild-type Smad3
Conditions in all cases: partners not purified
Flag-Smad3, full length [1] = biological target: T2, Flag-Smad3, full length (UniProt P84022 1-425)
T2 construct: Smad3; plasmid pCMV5-Flag-Smad3 (from J. Massagué); bait for Smad3-Smad3 association; also called Smad3 FL; source: HEK-293, transfected together with constitutively active Alk5, in lysate

[2] = biological target: T1, Flag-SkiW274E, full length
Flag-Smad3, full length [3] = biological target: T2, Flag-Smad3, full length; remark: listed apart in the source
[4] = biological target: T1, Flag-SkiW274E, full length; remark: listed apart in the source

percent binding relative to wild-type Smad3 (Flag-Smad3, full length [1]) [%]	percent binding relative to wild-type Smad3 [2] [%]	percent binding relative to wild-type Smad3 (Flag-Smad3, full length [3]) [%]	percent binding relative to wild-type Smad3 [4] [%]	Binder
30	31	–	–	Renilla luciferase-Smad3 D408H (natural protein, UniProt P84022 1-425, looked up, Smad3; source: HEK-293, transfected together with constitutively active Alk5, in lysate) MSSILPFTPPIVKRLLGWKKGEQNGQEEKWCEKAVKSLVKKLKKTGQLDELEKAITTQNVNTKCITIPRSLDGRLQVSHRKGLPHVIYCRLWRWPDLHSHHELRAMELCEFAFNMKKDEVCVNPYHYQRVETPVLPPVLVPRHTEIPAEFPPLDDYSHSIPENTNFPAGIEPQSNIPETPPPGYLSEDGETSDHQMNHSMDAGSPNLSPNPMSPAHNNLDLQPVTYCEPAFWCSISYYELNQRVGETFHASQPSMTVDGFTDPSNSERFCLGLLSNVNRNAAVELTRRHIGRGVRLYYIGGEVFAECLSDSAIFVQSPNCNQRYGWHPATVCKIPPGCNLKIFNNQEFAALLAQSVNQGFEAVYQLTRMCTIRMSFVKGWGAEYRRQTVTSTPCWIELHLNGPLQWLHKVLTQMGSPSIRCSSVS
–	–	564	21	Renilla luciferase-Smad3 W406A (natural protein, UniProt P84022 1-425, looked up, Smad3; source: HEK-293, transfected together with constitutively active Alk5, in lysate) MSSILPFTPPIVKRLLGWKKGEQNGQEEKWCEKAVKSLVKKLKKTGQLDELEKAITTQNVNTKCITIPRSLDGRLQVSHRKGLPHVIYCRLWRWPDLHSHHELRAMELCEFAFNMKKDEVCVNPYHYQRVETPVLPPVLVPRHTEIPAEFPPLDDYSHSIPENTNFPAGIEPQSNIPETPPPGYLSEDGETSDHQMNHSMDAGSPNLSPNPMSPAHNNLDLQPVTYCEPAFWCSISYYELNQRVGETFHASQPSMTVDGFTDPSNSERFCLGLLSNVNRNAAVELTRRHIGRGVRLYYIGGEVFAECLSDSAIFVQSPNCNQRYGWHPATVCKIPPGCNLKIFNNQEFAALLAQSVNQGFEAVYQLTRMCTIRMSFVKGWGAEYRRQTVTSTPCWIELHLNGPLQALDKVLTQMGSPSIRCSSVS
–	–	82	29	Renilla luciferase-Smad3 Y297A (natural protein, UniProt P84022 1-425, looked up, Smad3; source: HEK-293, transfected together with constitutively active Alk5, in lysate) MSSILPFTPPIVKRLLGWKKGEQNGQEEKWCEKAVKSLVKKLKKTGQLDELEKAITTQNVNTKCITIPRSLDGRLQVSHRKGLPHVIYCRLWRWPDLHSHHELRAMELCEFAFNMKKDEVCVNPYHYQRVETPVLPPVLVPRHTEIPAEFPPLDDYSHSIPENTNFPAGIEPQSNIPETPPPGYLSEDGETSDHQMNHSMDAGSPNLSPNPMSPAHNNLDLQPVTYCEPAFWCSISYYELNQRVGETFHASQPSMTVDGFTDPSNSERFCLGLLSNVNRNAAVELTRRHIGRGVRLAYIGGEVFAECLSDSAIFVQSPNCNQRYGWHPATVCKIPPGCNLKIFNNQEFAALLAQSVNQGFEAVYQLTRMCTIRMSFVKGWGAEYRRQTVTSTPCWIELHLNGPLQWLDKVLTQMGSPSIRCSSVS
–	–	113	121	Renilla luciferase-Smad3 Y298A (natural protein, UniProt P84022 1-425, looked up, Smad3; source: HEK-293, transfected together with constitutively active Alk5, in lysate) MSSILPFTPPIVKRLLGWKKGEQNGQEEKWCEKAVKSLVKKLKKTGQLDELEKAITTQNVNTKCITIPRSLDGRLQVSHRKGLPHVIYCRLWRWPDLHSHHELRAMELCEFAFNMKKDEVCVNPYHYQRVETPVLPPVLVPRHTEIPAEFPPLDDYSHSIPENTNFPAGIEPQSNIPETPPPGYLSEDGETSDHQMNHSMDAGSPNLSPNPMSPAHNNLDLQPVTYCEPAFWCSISYYELNQRVGETFHASQPSMTVDGFTDPSNSERFCLGLLSNVNRNAAVELTRRHIGRGVRLYAIGGEVFAECLSDSAIFVQSPNCNQRYGWHPATVCKIPPGCNLKIFNNQEFAALLAQSVNQGFEAVYQLTRMCTIRMSFVKGWGAEYRRQTVTSTPCWIELHLNGPLQWLDKVLTQMGSPSIRCSSVS
46	72	–	–	Renilla luciferase-Smad3 R243A (natural protein, UniProt P84022 1-425, looked up, Smad3; source: HEK-293, transfected together with constitutively active Alk5, in lysate) MSSILPFTPPIVKRLLGWKKGEQNGQEEKWCEKAVKSLVKKLKKTGQLDELEKAITTQNVNTKCITIPRSLDGRLQVSHRKGLPHVIYCRLWRWPDLHSHHELRAMELCEFAFNMKKDEVCVNPYHYQRVETPVLPPVLVPRHTEIPAEFPPLDDYSHSIPENTNFPAGIEPQSNIPETPPPGYLSEDGETSDHQMNHSMDAGSPNLSPNPMSPAHNNLDLQPVTYCEPAFWCSISYYELNQAVGETFHASQPSMTVDGFTDPSNSERFCLGLLSNVNRNAAVELTRRHIGRGVRLYYIGGEVFAECLSDSAIFVQSPNCNQRYGWHPATVCKIPPGCNLKIFNNQEFAALLAQSVNQGFEAVYQLTRMCTIRMSFVKGWGAEYRRQTVTSTPCWIELHLNGPLQWLDKVLTQMGSPSIRCSSVS
49	59	–	–	Renilla luciferase-Smad3 R292A (natural protein, UniProt P84022 1-425, looked up, Smad3; source: HEK-293, transfected together with constitutively active Alk5, in lysate) MSSILPFTPPIVKRLLGWKKGEQNGQEEKWCEKAVKSLVKKLKKTGQLDELEKAITTQNVNTKCITIPRSLDGRLQVSHRKGLPHVIYCRLWRWPDLHSHHELRAMELCEFAFNMKKDEVCVNPYHYQRVETPVLPPVLVPRHTEIPAEFPPLDDYSHSIPENTNFPAGIEPQSNIPETPPPGYLSEDGETSDHQMNHSMDAGSPNLSPNPMSPAHNNLDLQPVTYCEPAFWCSISYYELNQRVGETFHASQPSMTVDGFTDPSNSERFCLGLLSNVNRNAAVELTRRHIGAGVRLYYIGGEVFAECLSDSAIFVQSPNCNQRYGWHPATVCKIPPGCNLKIFNNQEFAALLAQSVNQGFEAVYQLTRMCTIRMSFVKGWGAEYRRQTVTSTPCWIELHLNGPLQWLDKVLTQMGSPSIRCSSVS
27	62	–	–	Renilla luciferase-Smad3 R268A (natural protein, UniProt P84022 1-425, looked up, Smad3; source: HEK-293, transfected together with constitutively active Alk5, in lysate) MSSILPFTPPIVKRLLGWKKGEQNGQEEKWCEKAVKSLVKKLKKTGQLDELEKAITTQNVNTKCITIPRSLDGRLQVSHRKGLPHVIYCRLWRWPDLHSHHELRAMELCEFAFNMKKDEVCVNPYHYQRVETPVLPPVLVPRHTEIPAEFPPLDDYSHSIPENTNFPAGIEPQSNIPETPPPGYLSEDGETSDHQMNHSMDAGSPNLSPNPMSPAHNNLDLQPVTYCEPAFWCSISYYELNQRVGETFHASQPSMTVDGFTDPSNSEAFCLGLLSNVNRNAAVELTRRHIGRGVRLYYIGGEVFAECLSDSAIFVQSPNCNQRYGWHPATVCKIPPGCNLKIFNNQEFAALLAQSVNQGFEAVYQLTRMCTIRMSFVKGWGAEYRRQTVTSTPCWIELHLNGPLQWLDKVLTQMGSPSIRCSSVS
–	–	161	89	Renilla luciferase-Smad3 Y226A (natural protein, UniProt P84022 1-425, looked up, Smad3; source: HEK-293, transfected together with constitutively active Alk5, in lysate) MSSILPFTPPIVKRLLGWKKGEQNGQEEKWCEKAVKSLVKKLKKTGQLDELEKAITTQNVNTKCITIPRSLDGRLQVSHRKGLPHVIYCRLWRWPDLHSHHELRAMELCEFAFNMKKDEVCVNPYHYQRVETPVLPPVLVPRHTEIPAEFPPLDDYSHSIPENTNFPAGIEPQSNIPETPPPGYLSEDGETSDHQMNHSMDAGSPNLSPNPMSPAHNNLDLQPVTACEPAFWCSISYYELNQRVGETFHASQPSMTVDGFTDPSNSERFCLGLLSNVNRNAAVELTRRHIGRGVRLYYIGGEVFAECLSDSAIFVQSPNCNQRYGWHPATVCKIPPGCNLKIFNNQEFAALLAQSVNQGFEAVYQLTRMCTIRMSFVKGWGAEYRRQTVTSTPCWIELHLNGPLQWLDKVLTQMGSPSIRCSSVS
24	44	–	–	Renilla luciferase-Smad3 Y238A (natural protein, UniProt P84022 1-425, looked up, Smad3; source: HEK-293, transfected together with constitutively active Alk5, in lysate) MSSILPFTPPIVKRLLGWKKGEQNGQEEKWCEKAVKSLVKKLKKTGQLDELEKAITTQNVNTKCITIPRSLDGRLQVSHRKGLPHVIYCRLWRWPDLHSHHELRAMELCEFAFNMKKDEVCVNPYHYQRVETPVLPPVLVPRHTEIPAEFPPLDDYSHSIPENTNFPAGIEPQSNIPETPPPGYLSEDGETSDHQMNHSMDAGSPNLSPNPMSPAHNNLDLQPVTYCEPAFWCSISYAELNQRVGETFHASQPSMTVDGFTDPSNSERFCLGLLSNVNRNAAVELTRRHIGRGVRLYYIGGEVFAECLSDSAIFVQSPNCNQRYGWHPATVCKIPPGCNLKIFNNQEFAALLAQSVNQGFEAVYQLTRMCTIRMSFVKGWGAEYRRQTVTSTPCWIELHLNGPLQWLDKVLTQMGSPSIRCSSVS
